From US20230279079A1 (CHANG GUNG MEMORIAL HOSPITAL LINKOU, published 2023) come the findings set out here.

Assay [1] addresses T1, SARS-CoV-2 nucleocapsid protein (SARS-CoV-2, UniProt P0DTC9 1-419).
T1 construct: also called N protein
Kind of assay: ELISA on recombinant protein. For orientation: In an ELISA, binding on a coated surface is turned into a signal by an enzyme label.

Assay [2] addresses T2, Human coronavirus OC43 spike extracellular domain (human coronavirus OC43, UniProt P36334 14-1297).
T2 construct: extracellular domain
Kind of assay: ELISA.

Assay [3] concerns the target T3, MERS spike extracellular domain (Middle East respiratory syndrome …, UniProt K9N5Q8 18-1296).
T3 construct: extracellular domain
Kind of assay: ELISA.

Assay [4] concerns the target T4, SARS-CoV-2 spike S2 subunit (SARS-CoV-2, UniProt P0DTC2 686-1213).
T4 construct: domain: S2 subunit
Kind of assay: ELISA.

The target of assay [5] is T5, SARS spike S1 subunit (severe acute respiratory syndrome …, UniProt P59594 14-667).
T5 construct: domain: S1 subunit
The assay can be described thus: ELISA.

Numbering of substitutions follows the chain as printed.

B1: EZ 9B (antibody, V domains shown)
VH: not shown
VL: SYELTQPPSVSVAPGQTARITCGGNNIGSKSVHWYQQKPGQAPVLVVYDDSDRPSGIPERFSGSNSGNTATLTISRVEAGDEADYYCQVWDSSSDHPSWVFGGGTKLTVL
For the molecule B1, the binding result in assay [1] is “binds”.

B2: FD 5B (antibody, V domains shown)
VH: not shown
VL: QSVLTQPPSASGSPGQSVTISCTGTSSDAGGYNYVSWYQQHPGKAPKLMIYEVSKRPSGVPDRFSGSKSGNTASLTVSGLQAEDEADYYCSSYAGSNNPFVFGTGTKVTVL
On to B2, for which the binding result in assay [1] is recorded as “binds”.

B3: EY 9C (antibody, V domains shown)
VH: EVQLVESGGGLVKPGGSLRLSCAASEFTFSSYTLNWVRQAPGKGLEWVSSISTSSAYIYYADSVKGRFTISRDNAKKSLSLQMNSLTAEDTAVYYCATWGGAPFDYWGQGTMVTVS
VL: QSVLTQPASVSGSPGRSITISCTETSSDVGTYNLVSWYQQHPGKAPKLMIFDDNKRPSGVSNRFSGSKSGNTASLTISGLQAEDEADYYCCSYAGGRTFNVLFGGGTKLTVL
In the case of B3, the binding result in assay [1] is recorded as “binds”.

B4: FM 7B (antibody, V domains shown)
VH: EVQLVQSGAEVKKPGASVKVSCKASGYTFTSYAMHWVRQAPGQRLEWMGWINTGNGNTKYSQKFQGRVTITRDTSASTAYMELSSLRSEDTAVYYCARDPTYCSSTSCYPFSWFDPWGQGTLVTVSS
VL: NFMLTQPPSVSVAPGQTARITCGGNNIGSKSVHWYQQKPGQAPVLVVYDDSDRPSGIPERFSGSNSGNTATLTISRVEAGDEADYYCQVWDSTGDHSWVFGGGTKLTVL
On to B4, for which the binding result is listed as “no binding” in assay [2], “no binding” in assay [3], “no binding” in assay [4] and “binds” in assay [5].

B5: EY 12A (antibody, V domains shown)
VH: EVQLVESGPGLVKPSQTLSLTCAVSGGSISSGGYYWSWIRQPPGKGLELIGYTDYTGKTLYNPSLKSRLTISVDTSKNQFSLKLRSVTAADTAVYYCARGMTQDDILTGFNRPHWYFDLWGRGSLVTVSS
VL: QSVLTQPPSVSGAPGQRVTISCTGSSSNIGAGYDVHWYQQLPGTAPKVVIYRNMNRPSGVPDRFSGSKSGTSASLAITGLQAEDEADYYCQSFDSSLSDFVVFGGGTKLTVL
Turning to B5, in assay [1], the binding result is “binds”.

B6: EW 9A (antibody, V domains shown)
VH: EVQLLESGGGVVQPGRSLRLSCAASGFTFSSYGMHWVRQAPGKGLEWVAVIWYDGSNKYYADSVKGRFTISRDNSKNTLYLQMNSLRAEDTAVYYCAKDMWALYDILTGYYTPYYYYGMDVWGQGTTVTVSS
VL: SYELTQPPSVSVSPGQTARITCSADALPKQYAYWYQQKPGQAPVLVIYKDSERPSGIPERFSGSSSGTTVTLTISGVQAEDEADYYCQSADSSGTYWVFGGGTKLTVL
Take B6: the binding result in assay [1] is given as “binds”.

B7: EZ 11A (antibody, V domains shown)
VH: EVQLVESGGGLVQPGGSLRLSCAASGFTFSSYWMSWVRQAPGKGLEWVANIKQDGSEKYYVDSVKGRFTISRDNAKNSLYLQMNSLRAEDTAVYYCARDDYSGSYYWEFDYWGQGTLVTVSS
VL: QPVLTQSPSASASLGASVKLTCTLSSGHSSYAIAWHQQQPEKGPRYLMKLNSDGSHSKGDGIPDRFSGSSSGAERYLTISSLQSEDEADYYCQTWGTGIWVFGGGTKLTVL
Take B7: the binding result in assay [1] is given as “binds”.

B8: EZ 9A (antibody, V domains shown)
VH: EVQLVESGGGLVQPGESLRVSCAASGFTFSNYWMHWVRQVPGKGPVWVSIINTDGSITRYVDSVRGRFTISRDNAKNTVHLQMNSLTAEDTAIYYCARDVNRYPDYWGQGTLVTVSS
VL: QSALTQPASVSGSPGQSITISCTGTYSDVGYYNYVSWYQQQPGKAPKVIIHGDINRPFGVSNRFSGSKSGNTASLTISGLQAEDEADYFCCSYVNNGAWVFGGGTKLTVL
With B8, the binding result in assay [1] is “binds”.

B9: EZ 7A (antibody, V domains shown)
VH: EVQLVESGAEVKKPGESLKISCKGSGYSFTSYWIGWVRQMPGKGLEWMGIIYPGDSDTRYSPSFQGQVTISADKSISTAYLQWSSLKASDTAMYYCARGWVYRGFPYYGMDVWGQGTMVTVSS
VL: QSALTQPRSVSGSPGQSVTISCTGTSSDVGGYNYVSWYQQHPGKAPKLMIYDVSKRPSGVPDRFSGSKSGNTASLTISGLQAEDEADYYCCSYAGSYTLVFGGGTKLTVL
With B9, the binding result in assay [3] was “binds”; in assay [4], “no binding”; in assay [5], “binds”.

B10: EY 12B (antibody, V domains shown)
VH: EVQLVESGGDLVQPGRSLRLSCAASGFTFDYFAMHWVRQVPGKGLEWVSGIRWNSETIGYADSVKGRFTISRDNAKKSLYLEMNSLRSEDTAFYYCAKGRSGYGHTAFDVWGQGTMVTVSS
VL: QSALTQPPSVSGAPGQRVTISCTGSSSNIGANYDVHWYQRLPGTAPKLLIYDNNNRPSGVPDRFSGSKSGTSASLAIAGLQAEDEADYYCQSYDSSLSASVFGGGTKLTVL
With B10, the binding result in assay [1] is listed as “binds”.

B11: EW 1A (antibody, V domains shown)
VH: EVQLVESGGGVVQPGSSLRLSCETSGFTFSGHAMHWVRQAPGKGLEWLAQIWFDGSEKYYADSVKGRFTISRDNSKKILYMQMNSLRVQDTAVYYCARDGQHLAPFAMDVWGQGTMVTVSS
VL: QSVLTQPASVSGSPGQSITISCTGTSSDVGASNRVSWYQHSPGEAPKLIIYQVTVRPSGVSDRFSGSKSGNTASLTISGLRTEDEAEYYCNSFVSGDSWVFGGGTKVTVL
Take B11: the binding result in assay [1] was “binds”.

B12: FI 4A (antibody, V domains shown)
VH: EVQLVESGGGLVKPGGSLRLSCAASGFTFSRFSMNWVRQAPGKGLEWVSSISSSGSYIYFADSVKGRFTISRDNAKNSLYLQMNSLRAEDTAIYYCATYLFGDSHTYWGQGTLVTVSS
VL: QSVLTQPHSVSESPGKTVTISCTGSSGSIASNYVQWYQQRPGSAPTTVIYEDNQRPSGVPDRFSGSIDSSSNSASLTISGLKTEDEADYYCQSYDSSNLHWVFGGGTKLTVL
As to B12, the binding result in assay [2], in assay [3], in assay [4] and in assay [5] was “no binding” throughout.

B13: EW 5A (antibody, V domains shown)
VH: EVQLVESGGGLVQPGGSLRLSCSVSGFPFGTYAMHWVRQAPGKGLDYVSAINNDGSITYYADSVRGRFTVSRDNSENTLYLRLSGLRPDDTAIYYCVKDRGSVIRDFDVWGRGTLVTVSS
VL: QTVVTQEPSLTVSPGGTVTLTCASSTGTVTSDYYPNWFQQKPGQAPRPLIFGTAYRHSWTPARFSGSLLGGKAALTVSDVQPEDEADYYCLLYCGGGQLFGGGTKLTVL
Turning to B13, in assay [1], the binding result is recorded as “binds”.

B14: FN 12A (antibody, V domains shown)
VH: QVQLVQSGAEVKKPGSSVKVSCKASGGTFSSYAISWVRQAPGQGLEWMGRIIPILGIANYAQKFQGRVTITADKSTSTAYMELSSLRSEDTAVYYCARSGCSSTSCPSNLYYYYYGMDVWGQGTTVTVSS
VL: QSVLTQPPSVSAAPGQKVTISCSGSSSNIGNNYVSWYQQLPGTAPKLLIYDNNKRPSGIPDRFSGSKSGTSATLGITGLQTGDEADYYCGTWDSSLSALVFGGGTKLTVL
Turning to B14, the binding result in assay [2] is reported as “binds”; in assay [3] it was “binds”; in assay [4], “no binding”; in assay [5], “binds”.

B15: EZ 11C (antibody, V domains shown)
VH: EVQLVESGAEVKKPGASVKVSCKVSGYTLTELSMHWVRQAPGKGLEWMGGFDPEDGETIYAQKFQGRVTMTEDTSTDTAYMELSSLRSEDTAVYYCATTTVTTPTANWFDPWGQGTLVTVSS
VL: B14 VL with V3A, D51E, S97R, A98Q, L99V
Regarding B15, the binding result in assay [1] is “binds”.

B16: EZ 9C (antibody, V domains shown)
VH: EVQLVESGGGLVQPGGSLRLSCSASGFTLNGYAMHWVRQAPGKGLEYVSSLSNRGDNTRYAESVKGRFLISRDIAKDTLYLQMSSLRPEDTAVYYCGKGLLSASGGLPIDDWGQGTLVTVSS
VL: B14 VL with L40F, D86A, G90A, L99G, T105A
In the case of B16, the binding result in assay [1] is “binds”.

B17: EZ 8C (antibody, V domains shown)
VH: EVQLVESGGGLVKPGGSLRLSCAASGFTFSSYTMNWVRQAPGKGLEWVSSFIANSDYKFYADSVKGRFTISRDNAKSSLYLQMNSLRAEDTAVYYCARELTSYGSHDAFDIWGQGTMVTVSS
VL: QSALTQPASVSGSPGQSITISCTGTSSDVGGYNYVSWYQQHPGKAPKLLIYEVTNRPSGVSDRFSGSKSANVASLTISGLQAEDEADYYCSSYTTTDSVVFGGGTKLTVL
In the case of B17, the binding result in assay [1] is on record as “binds”.

B18: FJ 10B (antibody, V domains shown)
VH: QVQLVQSGAEVKKPGESLRISCKGSGYSFTSYWISWVRQMPGKGLEWMGRIDPSDSYTNYSPSFQGHVTISADKSISTAYLQWSSLKASDTAMYYCARLDPRYGPDYYGMDVWGQGTTVTVSS
VL: AIRMTQSPSSLSASVGDRVTITCRASQSISSYLNWYQQKPGKAPKLLIHAASSLQSGVPSRFSGSGSGTDFTLTMSSLQPEDFATYYCQQSYSTPLTFGGGTKVEIR
B18: the binding result in assay [2] is recorded as “no binding”; in assay [3], “no binding”; in assay [4] it was “no binding”; in assay [5] it was “binds”.

B19: EW 10C (antibody, V domains shown)
VH: EVQLVESGGGLVQPGGSLRLSCAASGFTFNKYKMTWVRQAPGKGLEWVANIKEDGSEKNYVDSVKGRFTISRDNARNSVYMHLNNLRVEDTAVYYCARGRTLGDWGQGTTVTVSS
VL: AIRMTQSPLSLPVTLGQPASISCRSSQSLVHSDGNTYLNWFQQRPGQSPRRLIYKVSNRDSGAPDRFSGSGSGTDFTLKISRVEAEDVGVYYCMQGTHWPPITFGPGTKVDIK
Consider B19, for which the binding result in assay [1] is reported as “binds”.
